Experimental data from patent US20240390531A1 (IMAGINAB, published 2024).

Columns and labels:
[1] = molecular target: T1, purified human FAP antigen (human, UniProt Q12884 26-760, limits assumed); assay: ELISA, plate coated with purified human FAP antigen (FIG. 56D-56E)
Method: (§1) Binding kinetics of the novel antigen binding constructs to a purified human FAP antigen was assessed using ELISA. For this assay, a 96 well ELISA plate was coated with the human-FAP antigen diluted to a concentration of 2 mg/mL in coating buffer (0.05M sodium carbonate-bicarbonate buffer, pH 9.6). 100 μl of this coating solution was added to each well in the plate and incubate at 4° C. overnight. The plate was washed 3 times with 300 μl per well of washing buffer (PBS with 0.05% Tween-20). After the last wash, the plate was blocked by adding to each well 200 μl of blocking buffer (PBS with 1% BSA) warmed to room temperature. The plate was then incubated at room temperature for 1 hour under gentle agitation. After blocking, the plate was washed 3 times with 300 μl per well of washing buffer. Dilution samples for each minibody were created by making 2.5× dilutions from a starting sample at 100 ng/mL, or 250 ng/mL, or 1000 ng/mL or 3000 ng/mL in 100 μL sample buffer (PBS with 1% BSA). The dilution samples were transferred to the assay plate and incubated at room temperature for 1 hour under gentle agitation. The plate was then washed 3 times with 300 μl per well of washing buffer.
(§2) Detection was performed by adding 100 μl of HRP labeled detection secondary antibody at an appropriate dilution and incubating the plate at room temperature for 1 hour under gentle agitation. The plate was then washed 3 times with 300 μl per well of washing buffer. For color development, 100 μl of TMB substrate regent, pre-warmed to room temperature, was added to the plate and incubated in the dark at room temperature for 15 min. The reaction was then stopped by adding 100 μl of 650 nm stop solution to the plate and mixed for 1 min at room temperature under gentle agitation. The plate is recorded by reading OD at 650 nm in a plate reader within 20 min after terminating the reaction.

human FAP on cells = molecular target: T2, human FAP on cells (human, UniProt Q12884 1-760); assay: flow cytometry on U87-MG glioblastoma cells (FIG. 58B)
T2 construct: whole, on cells; The cell line is named under assay; also called HT1080 human FAP cells; HT1080-hFAP cells
Method: As disclosed herein, the binding of constructs to cellular targets was assessed using flow cytometry. Stock of 2.5× serial dilution of minibodies were created starting from a concentration of 100 nM in […] FACS buffer (PBS 2% FBS). Cells were added to a Corning V-bottom polypropylene cell culture plate at 200,000 cells/well. The cells were centrifuged at 100 rpm for 3 minutes and the supernatant discarded. The minibody dilution series were transferred to the plate containing cell pellets and incubated for 1 hr at 4° C. The plate was then washed 3 times with FACS buffer at 200 µl/well, discarding supernatant after each wash by centrifugation at 1000 rpm. 50 µl/well of detection antibody R&D AlexaFluor-647 Goat anti Human (H+L) was added at a 1:100 dilution in FACS buffer and incubated at 4° C. 1 hr. The plate was washed 3 times with FACS buffer at 200 µl/well, discarding supernatant after each wash by centrifuging at 1000 rpm. Cells were then fixed by adding 100 µl of 1% paraformaldehyde in PBS and incubating at room temperature for 15 minutes. 100 µl of PBS were added to each well and the plate was analyzed by flow cytometry using the allophycocyanin fluorescence setting.

[2] = molecular target: T1, purified human FAP antigen; assay: ELISA, plate coated with purified human FAP antigen (FIG. 56A-56C)
Method: as §1, §2

Binder	Kd [1] [nM]	Kd (human FAP on cells) [nM]	Kd [2] [nM]
IAB16M2-29 (other) QVQLVQSGAEVKKPGASVKVSCKASGYTFTEYTIHWVRQAPGQRLEWIGGINPNNGIPNYNQKFKGRVTITVDTSASTAYMELSSLRSEDTAVYYCARRRIAYGYDEGHAMDYWGQGTLVTVSSGSTSGGGSGGGSGGGGSSDIVMTQSPDSLAVSLGERATINCKSSQSLLYSRNQKNYLAWYQQKPGQPPKLLIFWASTRESGVPDRFSGSGSGTDFTLTISSLQAEDFAVYYCQQYFSYPLTFGQGTKVEIKEPKSSDKTHTCPPCPPCGGGSSGGGSGGQPREPQVYTLPPSREEMTKNQVSLTCLVKGFYPSDIAVEWESNGQPENNYKTTPPVLDSDGSFFLYSKLTVDKSRWQQGNVFSCSVMHEALHNHYTQKSLSLSPG	~1	–	–
IAB16C1-20 (other) DIVMTQSPDSLAVSLGERATINCKSSQSLLYSRNQKNYLAWYQQKPGQPPKLLIFWASTRESGVPDRFSGSGFGTDFTLTISSLQAEDVAVYYCQQYFSYPLTFGQGTKVEIKSGGGGQVQLVQSGAEVKKPGASVKVSCKTSRYTFTEYTIHWVRQAPGQRLEWIGGINPNNGIPNYNQKFKGRVTITVDTSASTAYMELSSLRSEDTAVYYCARRRIAYGYDEGHAMDYWGQGTLVTVSSGGCPPCPPC	~1	–	–
IAB16M2-9 (other) EVQLLESGGGLVQPGGSLRLSCAASGFTFSSYAMSWVRQAPGKGLEWVSAIIGSGASTYYADSVKGRFTISRDNSKNTLYLQMNSLRAEDTAVYYCAKGWFGGFNYWGQGTLVTVSSGSTSGGGSGGGSGGGGSSEIVLTQSPGTLSLSPGERATLSCRASQSVTSSYLAWYQQKPGQAPRLLINVGSRRATGIPDRFSGSGSGTDFTLTISRLEPEDFAVYYCQQGIMLPPTFGQGTKVEIKEPKSSDKTHTCPPCPPCGGGSSGGGSGGQPREPQVYTLPPSREEMTKNQVSLTCLVKGFYPSDIAVEWESNGQPENNYKTTPPVLDSDGSFFLYSKLTVDKSRWQQGNVFSCSVMHEALHNHYTQKSLSLSPG	–	~0.1	~0.1

Second part, the binder after the results:

Kd [1] [nM]	Kd (human FAP on cells) [nM]	Kd [2] [nM]	Binder
–	~0.1	~0.1	IAB16M2-13 (other, also called Sibrotuzumab minibody) QVQLVQSGAEVKKPGASVKVSCKTSRYTFTEYTIHWVRQAPGQRLEWIGGINPNNGIPNYNQKFKGRVTITVDTSASTAYMELSSLRSEDTAVYYCARRRIAYGYDEGHAMDYWGQGTLVTVSSGSTSGGGSGGGSGGGGSSDIVMTQSPDSLAVSLGERATINCKSSQSLLYSRNQKNYLAWYQQKPGQPPKLLIFWASTRESGVPDRFSGSGFGTDFTLTISSLQAEDVAVYYCQQYFSYPLTFGQGTKVEIKEPKSSDKTHTCPPCPPCGGGSSGGGSGGQPREPQVYTLPPSREEMTKNQVSLTCLVKGFYPSDIAVEWESNGQPENNYKTTPPVLDSDGSFFLYSKLTVDKSRWQQGNVFSCSVMHEALHNHYTQKSLSLSPG
–	~0.1	~0.1	IAB16M1-8 (other) EIVLTQSPGTLSLSPGERATLSCRASQSVTSSYLAWYQQKPGQAPRLLINVGSRRATGIPDRFSGSGSGTDFTLTISRLEPEDFAVYYCQQGIMLPPTFGQGTKVEIKGSTSGGGSGGGSGGGGSSEVQLLESGGGLVQPGGSLRLSCAASGFTFSSYAMSWVRQAPGKGLEWVSAIIGSGASTYYADSVKGRFTISRDNSKNTLYLQMNSLRAEDTAVYYCAKGWFGGFNYWGQGTLVTVSSEPKSSDKTHTCPPCPPCGGGSSGGGSGGQPREPQVYTLPPSREEMTKNQVSLTCLVKGFYPSDIAVEWESNGQPENNYKTTPPVLDSDGSFFLYSKLTVDKSRWQQGNVFSCSVMHEALHNHYTQKSLSLSPG
~1	–	–	IAB16C1-38 (other) DIVMTQSPDSLAVSLGERATINCKSSQSLLYSRNQKNYLAWYQQKPGQPPKLLIFWASTRESGVPDRFSGSGSGTDFTLTISSLQAEDFAVYYCQQYYSYPLTFGQGTKVEIKSGGGGQVQLVQSGAEVKKPGASVKVSCKASGYTFTEYTIHWVRQAPGQRLEWIGGINPNNGIPNYNQKFKGRVTITVDTSASTAYMELSSLRSEDTAVYYCARRRIAYGYDEGHAMDYWGQGTLVTVSSGGCPPCPPC
